Laboratory results: article PMC6668372, “Trypanosoma brucei centrin5 is enriched in the flagellum and interacts with other centrins in a calcium‐dependent manner” (FEBS Open Bio, 2019)

T1: TbCentrin3, purified for ITC (Trypanosoma brucei, UniProt Q38AA2 1-165)
T1 chain: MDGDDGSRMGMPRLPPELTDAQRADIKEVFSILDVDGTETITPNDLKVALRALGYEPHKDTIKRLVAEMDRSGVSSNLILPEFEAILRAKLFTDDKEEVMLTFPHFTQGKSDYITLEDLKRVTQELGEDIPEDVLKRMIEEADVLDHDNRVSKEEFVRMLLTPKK

T2: TbCentrin4, purified for ITC (Trypanosoma brucei, UniProt Q57WF6 1-149)
T2 chain: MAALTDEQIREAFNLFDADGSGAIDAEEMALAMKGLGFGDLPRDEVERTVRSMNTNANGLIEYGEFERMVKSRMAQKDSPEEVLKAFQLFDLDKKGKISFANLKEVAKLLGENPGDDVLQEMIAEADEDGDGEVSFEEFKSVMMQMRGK

B1: Trypanosoma brucei centrin5 (TbCentrin5), purified, His-tag removed (natural protein, UniProt Q382E7 1-186, looked up)
chain: MEGPKLKGAARCAAVEKVESKTQLSIAISEKHKAQLREAFDFFDSDGTGRINAQDVKVAFCALGYEVGKEELTHLLRQVGASTTGVIDFNDFYSVIIAKIMQRENRSEAIRAFKLIDTGEKGYINVDDLRPIAASLQMNLTDDELAEMVLFAHPSATYSKADTEMKDPLTVSEEEFLKLMNRAHVY
notes: TbCentrin5 of Trypanosoma brucei, Tb927.11.13900, full-length gene amplified from genomic DNA; 186 amino acids, about 20 kDa calculated; also called centrin5 of T. brucei; Tb927.11.13900; source: E. coli BL21 (DE3), purified (TEV digestion, gel filtration Sephadex G-75); not shown: His-tag, N-terminal, cleaved

Assays:
[1] = biological target: T1, TbCentrin3, purified for ITC; assay: ITC
[2] = biological target: T2, TbCentrin4, purified for ITC; assay: ITC
[3] = biological target: the molecule itself; assay: SEC; gel filtration on Superdex G-75 column, elution at about 66 mL corresponding to about 36 kDa; SDS/PAGE showed no disulfide bond
[4] = biological target: B1; assay: ITC; iTC200, 16 °C, 20 mM Tris/HCl pH 7.0, 100 mM NaCl; 50 uM TbCentrin1/2/3/4 in the cell, 0.5 mM TbCentrin5 in the syringe; without EGTA treatment; conditions: both partners purified

Binder	Kd [1] [µM]	Kd [2] [µM]	stoichiometry N [3]	Kd [4] [µM]
B1	56	16	2	–
TbCentrin3, purified for ITC (natural protein, Trypanosoma brucei, UniProt Q38AA2 1-165, looked up, TbCentrin3 of Trypanosoma brucei, Tb927.10.8710; Cloning, tag and host of this protein are not described; also called Tb927.10.8710; source: purified and equilibrated as above (gel filtration Sephadex G-75)) MDGDDGSRMGMPRLPPELTDAQRADIKEVFSILDVDGTETITPNDLKVALRALGYEPHKDTIKRLVAEMDRSGVSSNLILPEFEAILRAKLFTDDKEEVMLTFPHFTQGKSDYITLEDLKRVTQELGEDIPEDVLKRMIEEADVLDHDNRVSKEEFVRMLLTPKK	–	–	–	52
TbCentrin4, purified for ITC (natural protein, Trypanosoma brucei, UniProt Q57WF6 1-149, looked up, TbCentrin4 of Trypanosoma brucei, Tb927.07.3410; Cloning, tag and host of this protein are not described; also called TbCentirn4; Tb927.07.3410; source: purified and equilibrated as above (gel filtration Sephadex G-75)) MAALTDEQIREAFNLFDADGSGAIDAEEMALAMKGLGFGDLPRDEVERTVRSMNTNANGLIEYGEFERMVKSRMAQKDSPEEVLKAFQLFDLDKKGKISFANLKEVAKLLGENPGDDVLQEMIAEADEDGDGEVSFEEFKSVMMQMRGK	–	–	–	12
TbCentrin1, purified for ITC (natural protein, Trypanosoma brucei, UniProt Q584G1 1-182, looked up, TbCentrin1 of Trypanosoma brucei, Tb927.04.2260; Cloning, tag and host of this protein are not described; also called Tb927.04.2260; source: purified and equilibrated as above (gel filtration Sephadex G-75)) MSSSRPATGNRLAVPIRTNLPVPAPRKRRFELTDEQRQEIREAFELFDSDKNGLIDAHEMKVSMRALGFDAKKEEVLRMMQDCAARDQHNNPLMDLAGFTDLMTERFAQRDPRQEMIKAFQLFDENNTGKISLRSLRRVARELGENMTDEELQAMIDEFDTDQDGEINLDEFLAIMLEDDDY	–	–	–	105
